Measurements taken from PMC12118398.

Target: FXR1-CFP (human)
Experiment: FRET or BRET

Sequence of FXR1-CFP (natural protein) (P51114 2-621): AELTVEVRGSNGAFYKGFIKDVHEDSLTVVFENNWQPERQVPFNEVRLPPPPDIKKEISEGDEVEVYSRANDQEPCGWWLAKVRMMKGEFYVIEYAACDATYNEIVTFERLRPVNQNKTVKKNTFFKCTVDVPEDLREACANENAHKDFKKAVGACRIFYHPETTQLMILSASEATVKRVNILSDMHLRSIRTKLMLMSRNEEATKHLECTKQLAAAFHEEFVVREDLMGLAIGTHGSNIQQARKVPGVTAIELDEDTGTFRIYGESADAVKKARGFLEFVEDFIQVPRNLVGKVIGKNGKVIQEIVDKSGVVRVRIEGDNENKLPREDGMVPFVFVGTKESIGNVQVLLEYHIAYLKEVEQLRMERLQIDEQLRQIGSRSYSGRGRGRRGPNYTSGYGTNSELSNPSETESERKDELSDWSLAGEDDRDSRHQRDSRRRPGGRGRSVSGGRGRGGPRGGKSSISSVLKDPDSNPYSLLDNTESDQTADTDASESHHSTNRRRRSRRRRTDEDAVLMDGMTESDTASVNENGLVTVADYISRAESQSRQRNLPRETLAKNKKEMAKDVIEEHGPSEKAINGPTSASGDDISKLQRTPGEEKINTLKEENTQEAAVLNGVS
Sequence of SFPQ-YFP (natural protein) (P23246 whole entry): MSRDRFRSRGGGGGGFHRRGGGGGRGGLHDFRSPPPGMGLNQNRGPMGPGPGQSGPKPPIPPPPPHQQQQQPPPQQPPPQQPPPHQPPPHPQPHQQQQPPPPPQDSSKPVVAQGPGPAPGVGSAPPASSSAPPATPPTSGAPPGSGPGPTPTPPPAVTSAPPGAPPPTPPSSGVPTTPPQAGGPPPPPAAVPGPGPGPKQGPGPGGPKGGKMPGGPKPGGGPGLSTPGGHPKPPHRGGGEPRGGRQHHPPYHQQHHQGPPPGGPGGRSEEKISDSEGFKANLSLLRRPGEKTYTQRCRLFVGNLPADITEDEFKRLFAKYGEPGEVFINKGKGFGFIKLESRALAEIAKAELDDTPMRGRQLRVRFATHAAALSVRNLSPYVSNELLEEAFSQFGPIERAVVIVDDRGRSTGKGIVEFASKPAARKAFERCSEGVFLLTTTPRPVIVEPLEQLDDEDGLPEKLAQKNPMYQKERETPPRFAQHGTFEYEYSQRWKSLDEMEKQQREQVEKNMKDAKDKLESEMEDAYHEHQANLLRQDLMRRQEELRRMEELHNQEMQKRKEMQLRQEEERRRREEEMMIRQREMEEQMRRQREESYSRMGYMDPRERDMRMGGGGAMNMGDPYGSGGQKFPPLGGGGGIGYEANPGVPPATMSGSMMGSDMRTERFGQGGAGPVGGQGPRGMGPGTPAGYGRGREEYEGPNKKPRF
Sequence of YFP-FXR2_(14-399) (P51116 14-399): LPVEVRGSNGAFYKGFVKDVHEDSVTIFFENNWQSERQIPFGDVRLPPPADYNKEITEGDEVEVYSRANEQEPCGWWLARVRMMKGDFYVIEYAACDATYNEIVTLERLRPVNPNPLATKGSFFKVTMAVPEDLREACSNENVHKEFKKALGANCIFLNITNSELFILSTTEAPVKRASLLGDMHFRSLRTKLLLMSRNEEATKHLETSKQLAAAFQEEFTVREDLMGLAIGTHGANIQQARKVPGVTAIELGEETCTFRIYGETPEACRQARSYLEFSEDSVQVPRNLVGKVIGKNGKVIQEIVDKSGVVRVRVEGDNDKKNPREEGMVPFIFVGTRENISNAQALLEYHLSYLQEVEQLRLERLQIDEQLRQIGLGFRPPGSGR

Substance	FRET efficiency [%]
SFPQ-YFP (natural protein)	9.1
YFP-FMRP_(1-380) (from UniProt Q06787 1-380) (domain or fragment)	9.7
YFP-FXR2_(14-399) (from UniProt P51116 14-399) (domain or fragment)	8.3
FXR1-CFP (natural protein)	8.9
